In patent US20230028050A1 (JUNO THERAPEUTICS, published 2023):

T1: soluble monomeric BCMA-human Fc fusion protein (UniProt Q02223 1-54, limits assumed)
T1 construct: also called Monomeric BCMA-Fc; not shown: human Fc
T1 sequence (looked up): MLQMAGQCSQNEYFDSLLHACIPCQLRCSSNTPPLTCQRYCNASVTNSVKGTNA

T2: soluble dimeric BCMA-human Fc fusion protein (UniProt Q02223 1-54, limits assumed)
T2 construct: also called Dimeric BCMA-Fc; not shown: human Fc
T2 sequence (looked up): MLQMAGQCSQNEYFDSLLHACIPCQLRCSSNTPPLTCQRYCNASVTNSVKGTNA

T3: recombinant BCMA-Fc (soluble human BCMA fused at its C-terminus to an Fc region of IgG) fusion polypeptide (human, UniProt Q02223 1-54)
T3 construct: Used as a staining control; also called recombinant BCMA-Fc fusion polypeptide; not shown: Fc region of IgG
T3 sequence (looked up): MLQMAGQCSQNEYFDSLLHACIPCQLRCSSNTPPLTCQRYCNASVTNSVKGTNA

B1: soluble monomeric scFv-Fc fusion protein (scFv from anti-BCMA CAR 2) (Fc fusion)
chain: QSALTQPASVSASPGQSIAISCTGTSSDVGWYQQHPGKAPKLMIYEDSKRPSGVSNRFSGSKSGNTASLTISGLQAEDEADYYCSSNTRSSTLVFGGGTKLTVLGSRGGGGSGGGGSGGGGSLEMAEVQLVQSGAEMKKPGASLKLSCKASGYTFIDYYVYWMRQAPGQGLESMGWINPNSGGTNYAQKFQGRVTMTRDTSISTAYMELSRLRSDDTAMYYCARSQRDGYMDYWGQGTLVTVSS
notes: not shown: Fc
B2: soluble dimeric scFv-Fc fusion protein (scFv from anti-BCMA CAR 2) (Fc fusion)
chain: QSALTQPASVSASPGQSIAISCTGTSSDVGWYQQHPGKAPKLMIYEDSKRPSGVSNRFSGSKSGNTASLTISGLQAEDEADYYCSSNTRSSTLVFGGGTKLTVLGSRGGGGSGGGGSGGGGSLEMAEVQLVQSGAEMKKPGASLKLSCKASGYTFIDYYVYWMRQAPGQGLESMGWINPNSGGTNYAQKFQGRVTMTRDTSISTAYMELSRLRSDDTAMYYCARSQRDGYMDYWGQGTLVTVSS
notes: not shown: Fc
B3: anti-BCMA CAR 1 (chimeric antigen receptor with the scFv of anti-BCMA Target Antibody 1) (receptor)
chain: SYELTQPPSASGTPGQRVTMSCSGTSSNIGSHSVNWYQQLPGTAPKLLIYTNNQRPSGVPDRFSGSKSGTSASLAISGLQSEDEADYYCAAWDGSLNGLVFGGGTKLTVLGSRGGGGSGGGGSGGGGSLEMAEVQLVQSGAEVKKPGESLKISCKGSGYSFTSYWIGWVRQMPGKGLEWMGIIYPGDSDTRYSPSFQGHVTISADKSISTAYLQWSSLKASDTAMYYCARYSGSFDNWGQGTLVTVSS
notes: Whole receptor expressed on Jurkat T cells; not shown: human IgG-derived spacer, human CD28-derived transmembrane domain, human 4-1BB-derived intracellular signaling domain an

Columns and labels:
[1] = target: T4, anti-BCMA CAR 2 (chimeric antigen receptor with the scFv of anti-BCMA Target Antibody 2); assay: flow cytometry; Jurkat T cells expressing anti-BCMA CAR 2, 5 µg/mL purified anti-ID, goat anti-mouse IgG secondary antibody; parental Jurkat cells as negative
T4 construct: Whole receptor expressed on Jurkat T cells, Nur77-tdTomato reporter cells or primary human T cells; not shown: human IgG2 and IgG4-derived spacer, human CD28-derived transmembrane domain, human 4-1BB-derived intracellular signaling

[2] = target: B1; assay: SPR, BIAcore T200, against monomeric scFv-Fc
Method: (§1) Off rates and equilibrium dissociation constants were determined against a soluble monomeric scFv-Fc fusion protein as well as against a soluble dimeric scFv-Fc fusion protein. For comparison, the kinetics and affinity of soluble monomeric and dimeric BCMA-human Fc fusion proteins were also assessed against the monomeric and dimeric scFv-Fc fusion proteins, respectively. Off rates and equilibrium dissociation constants were determined using a BIAcore T200 instrument.

[3] = target: B2; assay: SPR, BIAcore T200, against dimeric scFv-Fc
Method: as §1

[4] = target: B3; assay: flow cytometry; Jurkat T cells expressing anti-BCMA CAR 1, anti-ID conjugated to Alexa Fluor 647
[5] = target: T1, soluble monomeric BCMA-human Fc fusion …; assay: SPR, BIAcore T200, against monomeric scFv-Fc
Method: as §1

[6] = target: T2, soluble dimeric BCMA-human Fc fusion …; assay: SPR, BIAcore T200, against dimeric scFv-Fc
Method: as §1

[7] = target: B3; assay: flow cytometry; Jurkat T cells expressing anti-BCMA CAR 1, 2.5 µg/mL anti-ID conjugated to Alexa Fluor 647, 20 min at 4 °C
[8] = target: T3, recombinant BCMA-Fc (soluble human BCMA …); assay: flow cytometry; Jurkat T cells expressing anti-BCMA CAR 1, staining with recombinant BCMA-Fc as control

Row | Kd [2] [nM] | koff [2] [s⁻¹] | Kd [3] [nM] | koff [3] [s⁻¹] | Binder | other results
1 |  |  |  |  | anti-idiotype antibody clone 10 (antibody, mouse IgG1, kappa, V domains shown, Mouse hybridoma antibody raised against the anti-BCMA CAR 1 scFv fused to mouse Fc and purified; Detected with a goat anti-mouse IgG secondary antibody; also called anti-ID clone 10) VH: EVKLLESGGGLVQPGGSLKLSCAASGFDFSRYWMSWVRQAPGKGLEWIGEINPDSSTINYTPSLKDKFIISRDNAKNTLYLQMSKVRSEDTALYYCARHGYYWYFDVWGAGTTVTVSS VL: DIQMTQTTSSLSASLGDRVTISCRASQDISNYLNWYQQKPDGTVKLLIYYTSRLHSGVPSRFSGSGSGTDYSLTISNLEQEDIATYFCQQGNTLPYTFGGGTKLEIKR | binding result [1]: binds
2 | 12 | 0.005 | 2.6 | 0.00014 | anti-idiotype antibody clone 16 (antibody, mouse IgG1, kappa, V domains shown, Mouse hybridoma antibody, purified; also called anti-ID clone 16) VH: QVQLQQSGPELVKPGASVKISCKASGYTFTDFYINWVKQRPGQGLEWIGWIFPRSGSTYYNEKFKGKATLSVDKSSITAYMLLSSLTSEDSAVYFCARGDGYSGAMDYWGQGTSVTVSS VL: DIQMTQTTSSLSASLGDRVTISCSASQGIRNYLNWYQQKPDGTVKLLIYYTSNLHSGVPSRFSGSGSGTDYSLTISNLEPEDIATYYCQQYNNLPRTFGGGTKLEIKR | binding result [4]: no binding (tested: 2.5 µg/mL)
3 |  |  |  |  | B1 | Kd [5]: 290 nM; koff [5]: 0.024 s⁻¹
4 |  |  |  |  | B2 | Kd [6]: 7 nM; koff [6]: 0.00014 s⁻¹
5 | 55 | 0.0081 | 3.6 | 6.2e-05 | anti-idiotype antibody clone 19 (antibody, mouse IgG2b, kappa, V domains shown, Mouse hybridoma antibody, purified; also called anti-ID clone 19) VH: QVQLQQSGAELMKPGASVKLSCKATGYTFTAYWIEWVKQRPGHGLEWIGEILPGSGITKYSEKFKGKATFTADTSSNTAYMQLSSLTTEDSAIYYCARDYYSDNYWGQGTSVTVSS VL: not shown | 
6 | 18 | 0.0036 | 2.2 | 4.4e-05 | anti-idiotype antibody clone 15 (antibody, mouse IgG1, kappa, V domains shown, Mouse hybridoma antibody, purified; also called anti-ID clone 15) VH: QVQLQQSGAELVKPGASVKISCKASGYAFSSYWMNWVKQRPGKGLEWIGQIYPGNGETNNNGKFKGKATLTADISSSTAYMQLSSLTSEDSAVYFCARGGWYFDVWGTGTTVTVSS VL: DIQMTQSPASLSASVGETVTITCRASENIYSYLAWYQQKQGKSPHLLVYNAYTLAEGVPSRFSGSGSDTQFSLKINSLQPEDFGNYYCQHHYGTPWTFGGGTKVEIKR | binding result [7]: binds
7 |  |  |  |  | B3 | binding result [8]: binds
